The record followed here is patent publication EP4626929A2 (dated 2025).

This experiment addresses BTLA on human primary B cells (human, UniProt Q7Z6A9 31-289). The experiment can be described thus: cell-based or functional assay.

B1: BTLA agonist antibody M10825 (antibody, human IgG2, kappa)
heavy: QITLKESGPTLVKPTQTLTLTCTFSGFSLSTSGVGVGWIRQPPGKALEWLAQEFWTGDKRYSPSLKSRLTITKDTSKNQVVLTMTNMDPVDTATYYCTHKLGMNYFDYWGQGTLVTVSSASTKGPSVFPLAPCSRSTSESTAALGCLVKDYFPEPVTVSWNSGALTSGVHTFPAVLQSSGLYSLSSVVTVPSSNFGTQTYTCNVDHKPSNTKVDKTVERKCCVECPPCPAPPVAGPSVFLFPPKPKDTLMISRTPEVTCVVVDVSHEDPEVQFNWYVDGVEVHNAKTKPREEQFNSTFRVVSVLTVVHQDWLNGKEYKCKVSNKGLPAPIEKTISKTKGQPREPQVYTLPPSREEMTKNQVSLTCLVKGFYPSDIAVEWESNGQPENNYKTTPPMLDSDGSFFLYSKLTVDKSRWQQGNVFSCSVMHEALHNHYTQKSLSLSPG
light: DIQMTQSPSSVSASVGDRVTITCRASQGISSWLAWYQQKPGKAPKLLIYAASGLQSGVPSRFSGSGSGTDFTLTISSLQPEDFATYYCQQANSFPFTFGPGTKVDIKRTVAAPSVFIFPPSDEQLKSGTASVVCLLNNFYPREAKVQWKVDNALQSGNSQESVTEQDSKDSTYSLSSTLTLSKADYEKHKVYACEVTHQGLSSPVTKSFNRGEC
With B1, the “IC50 of inhibition of human primary B cell proliferation” value was found to be 10.5 nM.
